Experimental data as given in publication PMC11969024, “Development of chemokine network inhibitors using combinatorial saturation mutagenesis” (Communications Biology, 2025).

B1: peptide HD2 (from tick evasin EVA4) / CXCL14 (biotinylated, synthetic) (parent)
chain 1: EEDDYTAYAPLTCYFT
chain 2: SKCKCSRKGPKIRYSDVKKLEMKPKYPHCEEKMVIITTKSVSRYRGQEHCLHPKLQSTKRFIKWYNAWNEKRRVYEE
B2: peptide HD2 (from tick evasin EVA4) / CCL17 (biotinylated, synthetic) (parent)
chain 1: EEDDYTAYAPLTCYFT
chain 2: ARGTNVGRECCLEYFKGAIPLRKLKTWYQTSEDCSRDAIVFVTVQGRAICSDPNNKRVKNAVKYLQSLERS
B3: peptide HD2 (from tick evasin EVA4) / CCL1 (biotinylated, synthetic) (parent)
chain 1: EEDDYTAYAPLTCYFT
chain 2: KSMQVPFSRCCFSFAEQEIPLRAILCYRNTSSICSNEGLIFKLKRGKEACALDTVGWVQRHRKMLRHCPSKRK

Variants of: B1
Settings: with CXCL14 (biotinylated, synthetic); scale: log2

| Variant | enrichment |
| --- | --- |
| chain 1 Y5K | -3.86 |
| chain 1 Y5N | -5.97 |
| chain 1 Y5G | -5.37 |
| chain 1 Y5V | -7.53 |
| chain 1 Y5A | -5.33 |
| chain 1 Y5S | -7.36 |
| chain 1 Y14P | -7.11 |
| chain 1 Y14K | -6.43 |
| chain 1 Y14T | -7.2 |
| chain 1 Y14I | -5.53 |
| chain 1 Y14M | -7.23 |
| chain 1 Y14N | -5.16 |
| chain 1 Y14F | -6.35 |
| chain 1 Y14G | -8.76 |
| chain 1 Y14D | -5.79 |
| chain 1 Y14S | -7.93 |
| chain 1 Y14R | -8.35 |
| chain 1 Y8G | -6.97 |
| chain 1 Y8A | -7.04 |
| chain 1 Y8K | -4.33 |
| chain 1 Y8T | -6.74 |
| chain 1 Y8R | -6.45 |
| chain 1 Y8H | -5.83 |

| Variant | enrichment |
| --- | --- |
| chain 1 Y8Q | -4.62 |
| chain 1 Y8C | -7.94 |
| chain 1 Y8E | -4.45 |
| chain 1 Y8S | -8.01 |
| chain 1 T16Y | -5.41 |
| chain 1 T16R | -7.45 |
| chain 1 T16F | -5.71 |
| chain 1 A7C | -8.1 |
| chain 1 A9P | -6.07 |
| chain 1 A9R | -6.78 |
| chain 1 A9C | -8.35 |
| chain 1 L11P | -6.36 |
| chain 1 L11G | -8.51 |
| chain 1 L11E | -6.43 |
| chain 1 L11K | -5.25 |
| chain 1 D3K | -3.62 |
| chain 1 D3W | -5.18 |
| chain 1 D3L | -8.51 |
| chain 1 D3Q | -3.25 |
| chain 1 D3S | -7.81 |
| chain 1 D3A | -5.29 |
| chain 1 D3C | -8.16 |
| chain 1 D3H | -5.23 |

| Variant | enrichment |
| --- | --- |
| chain 1 D3V | -7.6 |
| chain 1 D3M | -6.1 |
| chain 1 D3R | -5.71 |
| chain 1 F15E | -7.19 |
| chain 1 F15P | -5.62 |
| chain 1 F15T | -5.59 |
| chain 1 F15D | -6.86 |
| chain 1 F15K | -5.27 |
| chain 1 D4A | -6.34 |
| chain 1 D4L | -9.04 |
| chain 1 D4H | -6.03 |
| chain 1 D4G | -4.48 |
| chain 1 D4K | -5.14 |
| chain 1 D4Q | -4.74 |
| chain 1 D4R | -5.35 |
| chain 1 D4T | -6.14 |
| chain 1 D4V | -8.11 |
| chain 1 D4C | -7.5 |
| chain 1 E1K | -4.33 |
| chain 1 E1N | -6.84 |
| chain 1 E1H | -6.24 |
| chain 1 E1A | -5.59 |
| chain 1 E1G | -5.5 |

| Variant | enrichment |
| --- | --- |
| chain 1 E1M | -5.07 |
| chain 1 E1P | -5.8 |
| chain 1 E1R | -6.24 |
| chain 1 E1C | -8.01 |
| chain 1 C13R | -8.81 |
| chain 1 C13I | -6.44 |
| chain 1 C13H | -6.91 |
| chain 1 C13L | -9.57 |
| chain 1 C13M | -7.78 |
| chain 1 C13F | -6.89 |
| chain 1 C13K | -7.38 |
| chain 1 C13Y | -7.01 |
| chain 1 C13Q | -7.64 |
| chain 1 E2A | -5.18 |
| chain 1 E2H | -5.9 |
| chain 1 E2P | -5.31 |
| chain 1 E2C | -8.27 |
| chain 1 E2Q | -3.16 |
| chain 1 E2K | -3.41 |
| chain 1 E2R | -5.39 |

Variants of: B2
Settings: with CCL17 (biotinylated, synthetic); scale: log2

| Variant | enrichment |
| --- | --- |
| chain 1 C13H | -8.75 |
| chain 1 C13W | -9.75 |
| chain 1 C13A | -10.7 |
| chain 1 C13D | -9.26 |
| chain 1 C13G | -10.5 |
| chain 1 C13K | -9.23 |
| chain 1 A7C | -9.94 |
| chain 1 D3C | -10 |
| chain 1 A9P | -7.91 |
| chain 1 A9D | -8.33 |
| chain 1 A9C | -10.2 |
| chain 1 A9I | -10.1 |
| chain 1 A9K | -6.73 |

Variants of: B3
Settings: with CCL1 (biotinylated, synthetic); scale: log2

| Variant | enrichment |
| --- | --- |
| chain 1 C13H | -7.88 |
| chain 1 C13L | -10.5 |
| chain 1 C13I | -7.4 |
| chain 1 C13K | -8.35 |
| chain 1 A9D | -7.46 |
| chain 1 A9C | -9.32 |
| chain 1 A9H | -7.44 |
| chain 1 A9K | -5.86 |
| chain 1 D3R | -6.68 |
| chain 1 D3C | -9.13 |
| chain 1 D3K | -4.59 |
| chain 1 A7C | -9.07 |
| chain 1 P10I | -7.67 |
| chain 1 P10S | -8.42 |
| chain 1 P10F | -8.64 |
| chain 1 P10R | -8.31 |
| chain 1 P10C | -8.95 |
| chain 1 P10N | -7.25 |
| chain 1 P10T | -7.09 |
| chain 1 P10K | -6.19 |
| chain 1 P10H | -7.18 |
| chain 1 P10Y | -7.79 |

| Variant | enrichment |
| --- | --- |
| chain 1 Y14K | -7.4 |
| chain 1 Y14E | -7.99 |
| chain 1 Y14N | -6.13 |
| chain 1 Y14P | -8.08 |
| chain 1 Y14D | -6.76 |
| chain 1 Y14G | -9.73 |
| chain 1 L11N | -7.68 |
| chain 1 L11P | -7.33 |
| chain 1 L11E | -7.4 |
| chain 1 D4T | -7.11 |
| chain 1 D4V | -9.08 |
| chain 1 D4Q | -5.71 |
| chain 1 D4R | -6.32 |
| chain 1 D4G | -5.45 |
| chain 1 D4C | -8.47 |
| chain 1 D4K | -6.11 |
| chain 1 E2C | -9.24 |
| chain 1 E2K | -4.38 |
| chain 1 Y5C | -8.4 |
| chain 1 Y5H | -6.55 |
| chain 1 Y5K | -4.83 |
| chain 1 Y5Q | -4.59 |

| Variant | enrichment |
| --- | --- |
| chain 1 Y5V | -8.5 |
| chain 1 Y5P | -5.96 |
| chain 1 Y5E | -2.71 |
| chain 1 Y5G | -6.34 |
| chain 1 Y5A | -6.3 |
| chain 1 Y5D | -6.28 |
| chain 1 Y5R | -6.28 |
| chain 1 Y5M | -6.87 |
| chain 1 Y5S | -8.33 |
| chain 1 Y5T | -6.9 |
| chain 1 E1C | -8.98 |
| chain 1 Y8R | -7.41 |
| chain 1 Y8G | -7.94 |
| chain 1 Y8Q | -5.59 |
| chain 1 Y8H | -6.8 |
| chain 1 Y8T | -7.71 |
| chain 1 Y8E | -5.41 |
| chain 1 Y8N | -7.36 |
| chain 1 Y8S | -8.97 |
| chain 1 Y8C | -8.91 |
| chain 1 Y8K | -5.3 |
